# Laboratory results from patent US5710244A, “Derivatized calcitonins” (priority 1993, dated 1998).
# Numbered stars: 1 amine (or outer) side, 2 acyl side, 3 side chain; on linkers, the order of the positions; unused ones are H or OH. Bridge positions count the residues as written; N and C are the ends. * marks the point of attachment. X1 = 2,2'‑bipyridine‑4,4'‑dicarboxylic acid, O=C(O)c1ccnc(-c2cc(C(=O)*)ccn2)c1; X2 = 2,2'‑bipyridine‑5,5'‑dicarboxylic acid, O=C(O)c1ccc(-c2ccc(C(=O)*)cn2)nc1; Biphenyldicarbonyl(4,4') = O=C(c1ccc(-c2ccc(C(=O)[*:2])cc2)cc1)[*:1]; Pyrazinecarbonyl = O=C(c1cnccn1)*; Nicotinoyl = O=C(c1cccnc1)*
# T1: recombinant human calcitonin receptor (human, UniProt P30988)
# T1 sequence: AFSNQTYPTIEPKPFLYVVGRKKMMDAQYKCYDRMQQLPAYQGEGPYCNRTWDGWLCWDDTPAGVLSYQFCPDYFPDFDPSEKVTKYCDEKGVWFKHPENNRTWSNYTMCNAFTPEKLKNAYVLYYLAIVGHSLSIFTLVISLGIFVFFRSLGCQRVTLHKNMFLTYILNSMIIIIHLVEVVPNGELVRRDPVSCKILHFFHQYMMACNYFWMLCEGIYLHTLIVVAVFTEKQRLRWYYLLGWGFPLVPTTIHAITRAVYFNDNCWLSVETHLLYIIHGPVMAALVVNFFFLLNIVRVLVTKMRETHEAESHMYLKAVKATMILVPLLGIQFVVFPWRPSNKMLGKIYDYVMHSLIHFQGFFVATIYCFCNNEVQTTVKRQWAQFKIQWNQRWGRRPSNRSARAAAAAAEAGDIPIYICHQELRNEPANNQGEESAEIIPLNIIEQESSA
# B1: isonipecotic acid modified salmon calcitonin (peptide)
# peptide: CSNLSTCVLGKLSQELHKLQTYPRTNTGSGTP
# modifications: N-terminal amino group acylated with isonipecotic acid (amide linkage); C-terminal amide; disulfide Cys1-Cys7
# B2: DL-pipecolinic acid modified salmon calcitonin (peptide)
# peptide: B1 peptide
# modifications: N-terminal amino group acylated with DL-pipecolinic acid (amide linkage); C-terminal amide; disulfide Cys1-Cys7
# B3: Nicotinic acid-modified Calcitonin (peptide)
# peptide: Nicotinoyl-CSNLSTCVLGKLSQELHKLQTYPRTNTGSGTP-NH2
# modifications: disulfide 1-7
# SMILES: CC(C)C[C@H](NC(=O)[C@H](CCCCN)NC(=O)CNC(=O)[C@H](CC(C)C)NC(=O)[C@@H](NC(=O)[C@@H]1CSSC[C@H](NC(=O)c2cccnc2)C(=O)N[C@@H](CO)C(=O)N[C@@H](CC(N)=O)C(=O)N[C@@H](CC(C)C)C(=O)N[C@@H](CO)C(=O)N[C@@H]([C@@H](C)O)C(=O)N1)C(C)C)C(=O)N[C@@H](CO)C(=O)N[C@@H](CCC(N)=O)C(=O)N[C@@H](CCC(=O)O)C(=O)N[C@@H](CC(C)C)C(=O)N[C@@H](Cc1c[nH]cn1)C(=O)N[C@@H](CCCCN)C(=O)N[C@@H](CC(C)C)C(=O)N[C@@H](CCC(N)=O)C(=O)N[C@H](C(=O)N[C@@H](Cc1ccc(O)cc1)C(=O)N1CCC[C@H]1C(=O)N[C@@H](CCCNC(=N)N)C(=O)N[C@H](C(=O)N[C@@H](CC(N)=O)C(=O)N[C@H](C(=O)NCC(=O)N[C@@H](CO)C(=O)NCC(=O)N[C@H](C(=O)N1CCC[C@H]1C(N)=O)[C@@H](C)O)[C@@H](C)O)[C@@H](C)O)[C@@H](C)O
# B4: Bipyridine-modified Calcitonin (peptide)
# peptide: X1-CSNLSTCVLGKLSQELHKLQTYPRTNTGSGTP-NH2
# modifications: disulfide 1-7
# SMILES: CC(C)C[C@H](NC(=O)[C@H](CCCCN)NC(=O)CNC(=O)[C@H](CC(C)C)NC(=O)[C@@H](NC(=O)[C@@H]1CSSC[C@H](NC(=O)c2ccnc(-c3cc(C(=O)O)ccn3)c2)C(=O)N[C@@H](CO)C(=O)N[C@@H](CC(N)=O)C(=O)N[C@@H](CC(C)C)C(=O)N[C@@H](CO)C(=O)N[C@@H]([C@@H](C)O)C(=O)N1)C(C)C)C(=O)N[C@@H](CO)C(=O)N[C@@H](CCC(N)=O)C(=O)N[C@@H](CCC(=O)O)C(=O)N[C@@H](CC(C)C)C(=O)N[C@@H](Cc1c[nH]cn1)C(=O)N[C@@H](CCCCN)C(=O)N[C@@H](CC(C)C)C(=O)N[C@@H](CCC(N)=O)C(=O)N[C@H](C(=O)N[C@@H](Cc1ccc(O)cc1)C(=O)N1CCC[C@H]1C(=O)N[C@@H](CCCNC(=N)N)C(=O)N[C@H](C(=O)N[C@@H](CC(N)=O)C(=O)N[C@H](C(=O)NCC(=O)N[C@@H](CO)C(=O)NCC(=O)N[C@H](C(=O)N1CCC[C@H]1C(N)=O)[C@@H](C)O)[C@@H](C)O)[C@@H](C)O)[C@@H](C)O
# B5: 2-Pyrazinoyl-modified calcitonin (peptide)
# peptide: Pyrazinecarbonyl-CSNLSTCVLGKLSQELHKLQTYPRTNTGSGTP-NH2
# modifications: disulfide 1-7
# SMILES: CC(C)C[C@H](NC(=O)[C@H](CCCCN)NC(=O)CNC(=O)[C@H](CC(C)C)NC(=O)[C@@H](NC(=O)[C@@H]1CSSC[C@H](NC(=O)c2cnccn2)C(=O)N[C@@H](CO)C(=O)N[C@@H](CC(N)=O)C(=O)N[C@@H](CC(C)C)C(=O)N[C@@H](CO)C(=O)N[C@@H]([C@@H](C)O)C(=O)N1)C(C)C)C(=O)N[C@@H](CO)C(=O)N[C@@H](CCC(N)=O)C(=O)N[C@@H](CCC(=O)O)C(=O)N[C@@H](CC(C)C)C(=O)N[C@@H](Cc1c[nH]cn1)C(=O)N[C@@H](CCCCN)C(=O)N[C@@H](CC(C)C)C(=O)N[C@@H](CCC(N)=O)C(=O)N[C@H](C(=O)N[C@@H](Cc1ccc(O)cc1)C(=O)N1CCC[C@H]1C(=O)N[C@@H](CCCNC(=N)N)C(=O)N[C@H](C(=O)N[C@@H](CC(N)=O)C(=O)N[C@H](C(=O)NCC(=O)N[C@@H](CO)C(=O)NCC(=O)N[C@H](C(=O)N1CCC[C@H]1C(N)=O)[C@@H](C)O)[C@@H](C)O)[C@@H](C)O)[C@@H](C)O
# B6: 4-4'-biphenyldicarboxylic acid modified salmon calcitonin (peptide)
# peptide: {Biphenyldicarbonyl(4,4')}-CSNLSTCVLGKLSQELHKLQTYPRTNTGSGTP-NH2
# modifications: disulfide 1-7
# SMILES: CC(C)C[C@H](NC(=O)[C@H](CCCCN)NC(=O)CNC(=O)[C@H](CC(C)C)NC(=O)[C@@H](NC(=O)[C@@H]1CSSC[C@H](NC(=O)c2ccc(-c3ccc(C(=O)O)cc3)cc2)C(=O)N[C@@H](CO)C(=O)N[C@@H](CC(N)=O)C(=O)N[C@@H](CC(C)C)C(=O)N[C@@H](CO)C(=O)N[C@@H]([C@@H](C)O)C(=O)N1)C(C)C)C(=O)N[C@@H](CO)C(=O)N[C@@H](CCC(N)=O)C(=O)N[C@@H](CCC(=O)O)C(=O)N[C@@H](CC(C)C)C(=O)N[C@@H](Cc1c[nH]cn1)C(=O)N[C@@H](CCCCN)C(=O)N[C@@H](CC(C)C)C(=O)N[C@@H](CCC(N)=O)C(=O)N[C@H](C(=O)N[C@@H](Cc1ccc(O)cc1)C(=O)N1CCC[C@H]1C(=O)N[C@@H](CCCNC(=N)N)C(=O)N[C@H](C(=O)N[C@@H](CC(N)=O)C(=O)N[C@H](C(=O)NCC(=O)N[C@@H](CO)C(=O)NCC(=O)N[C@H](C(=O)N1CCC[C@H]1C(N)=O)[C@@H](C)O)[C@@H](C)O)[C@@H](C)O)[C@@H](C)O
# B7: 2,2'-bipyridine-5,5'-dicarboxylic acid modified salmon calcitonin (peptide)
# peptide: X2-CSNLSTCVLGKLSQELHKLQTYPRTNTGSGTP-NH2
# modifications: disulfide 1-7
# SMILES: CC(C)C[C@H](NC(=O)[C@H](CCCCN)NC(=O)CNC(=O)[C@H](CC(C)C)NC(=O)[C@@H](NC(=O)[C@@H]1CSSC[C@H](NC(=O)c2ccc(-c3ccc(C(=O)O)cn3)nc2)C(=O)N[C@@H](CO)C(=O)N[C@@H](CC(N)=O)C(=O)N[C@@H](CC(C)C)C(=O)N[C@@H](CO)C(=O)N[C@@H]([C@@H](C)O)C(=O)N1)C(C)C)C(=O)N[C@@H](CO)C(=O)N[C@@H](CCC(N)=O)C(=O)N[C@@H](CCC(=O)O)C(=O)N[C@@H](CC(C)C)C(=O)N[C@@H](Cc1c[nH]cn1)C(=O)N[C@@H](CCCCN)C(=O)N[C@@H](CC(C)C)C(=O)N[C@@H](CCC(N)=O)C(=O)N[C@H](C(=O)N[C@@H](Cc1ccc(O)cc1)C(=O)N1CCC[C@H]1C(=O)N[C@@H](CCCNC(=N)N)C(=O)N[C@H](C(=O)N[C@@H](CC(N)=O)C(=O)N[C@H](C(=O)NCC(=O)N[C@@H](CO)C(=O)NCC(=O)N[C@H](C(=O)N1CCC[C@H]1C(N)=O)[C@@H](C)O)[C@@H](C)O)[C@@H](C)O)[C@@H](C)O
# Target: T1, recombinant human calcitonin receptor
# Assay: cell-based or functional assay
# Conditions: not given
row,Molecule,% SCT EC50 (CRE-linked luciferase induction)
1,B1,146 % SCT EC50
2,B2,230 % SCT EC50
3,B3,112 % SCT EC50
4,B4,97 % SCT EC50
5,{picolinic acid}-CSNLSTCVLGKLSQELHKLQTYPRTNTGSGTP-NH2 (disulfide 1-7) [Pycolinyl-modified Calcitonin],140 % SCT EC50
6,B5,158 % SCT EC50
7,B6,450 % SCT EC50
8,B7,199 % SCT EC50
9,{nipecotic acid}-CSNLSTCVLGKLSQELHKLQTYPRTNTGSGTP-NH2 (disulfide 1-7) [nipecotic acid modified salmon calcitonin],243 % SCT EC50

# Tested on: endogenous hamster calcitonin receptor
# Assay: CRE-linked luciferase (cyclic AMP) induction in BHK cells expressing endogenous hamster calcitonin receptor
# Type: cell-based
# Conditions: EC50 as % of SCT EC50; the factor × 10^3 is printed under the HCT value only
# Protocol: A BHK cell line expressing the endogenous hamster calcitonin receptor was transfected with plasmid KZ10-20-48 to provide the CRE-inducible luciferase receptor described above. The transfected cells were cultured in selective growth medium containing both 500 μg/mL G418-neomycin and 250 nM methotrexate.
# Cells expressing the calcitonin receptor were assayed in triplicate for the induction of the CRE-linked luciferase response to salmon calcitonin (SCT) and derivatized calcitonins at concentrations ranging from 10^-13 M to 10^-6 M. MICROLITE flat bottom tissue culture plates (Baxter Scientific Products, Chicago, Ill.) were set up such that each well contained 2×10^4 cells in 100 μl of selection media, and the cells were grown overnight. SCT and GF43 were prepared at 2X the final assay concentration to give 10^-13 to 10^-6 M in growth medium. Induction was initiated by removing old medium from the wells and adding 100 μl of fresh growth medium and 100 μl of either 2X solution in triplicate sample wells. Uninduced luciferase levels were determined in triplicate wells to which 100 μl of DMEM containing 10% fetal calf serum was added. The plates were incubated for four hours at 37° C., 5% CO2 to allow induction of luciferase. Following induction, the media were removed, and the wells were washed once with 200 μl/well PBS. After the wash, 20 μl of a 1:5 dilution (in sterile water) of the stock Cell Culture Lysis Reagent (Luciferase Assay System, Promega Corp., Madison, Wis.) was added to each well, and the plates were incubated for 15 minutes at room temperature. The plates were transferred to a Labsystems Luminoskan microtiter luminometer (Labsystems Inc., Morton Grove, Ill.) which added 40 μl of Luciferase Assay Substrate (Luciferase Assay System, Promega), mixed the reaction for three seconds and integrated the luciferase signal for two seconds per well. The fold induction of luciferase for each compound was calculated as follows:
# Fold induction=Induced signal-Uninduced signal Uninduced signal
row,Molecule,"% SCT EC50, Hamster CT receptor (× 10^3)"
1,"human calcitonin [HCT, reference compound]",5.9 × 10^3%

# Same assay, conditions: EC50 as % of salmon calcitonin (SCT) EC50; CRE-luciferase, BHK cells, 4 h induction
row,Molecule,"% SCT EC50, Hamster CT receptor"
1,ZP-3: 4-4'-biphenyldicarboxylic acid modified salmon calcitonin,341%
2,ZP-10: nipecotic acid modified salmon calcitonin,152%
3,"ZP-2: 2,2'-bipyridine-5,5'-dicarboxylic acid modified salmon calcitonin",125%
4,ZP-7: 2-Pyrazinoyl-modified salmon calcitonin,155%

# Target: endogenous hamster calcitonin receptor (hamster)
# Assay: not given
# Conditions: not given
row,Molecule,% SCT EC50 (CRE-linked luciferase induction)
1,human calcitonin (from UniProt P01258) (peptide),5900 % SCT EC50
2,B1,106 % SCT EC50
3,B2,147 % SCT EC50
4,B3,71 % SCT EC50
5,B4,73 % SCT EC50
6,{picolinic acid}-CSNLSTCVLGKLSQELHKLQTYPRTNTGSGTP-NH2 (disulfide 1-7) [Pycolinyl-modified Calcitonin],98 % SCT EC50
7,B5,155 % SCT EC50
8,B6,341 % SCT EC50
9,B7,125 % SCT EC50
10,{nipecotic acid}-CSNLSTCVLGKLSQELHKLQTYPRTNTGSGTP-NH2 (disulfide 1-7) [nipecotic acid modified salmon calcitonin],152 % SCT EC50
